From PMC314469, “Protein Interaction Networks by Proteome Peptide Scanning” (PLoS Biology, 2004)

What was measured:
Assay in all cases: SPOT array
[1] = target: T1, Boi1 SH3 (BOI1_YEAST), P38041
T1 chain: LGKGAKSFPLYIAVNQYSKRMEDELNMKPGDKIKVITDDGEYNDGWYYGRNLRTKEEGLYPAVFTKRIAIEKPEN

[2] = target: T2, Boi2 SH3 (BOI2_YEAST), P39969
T2 chain: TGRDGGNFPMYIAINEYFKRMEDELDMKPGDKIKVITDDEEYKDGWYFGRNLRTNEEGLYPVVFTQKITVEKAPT

[3] = target: T3, Rvs167 SH3 (RV167_YEAST), P39743
T3 chain: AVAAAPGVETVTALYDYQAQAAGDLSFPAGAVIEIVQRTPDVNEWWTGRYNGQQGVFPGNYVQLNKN

[4] = target: T4, Yfr024 SH3 (LSB3_YEAST), P43603
T4 chain: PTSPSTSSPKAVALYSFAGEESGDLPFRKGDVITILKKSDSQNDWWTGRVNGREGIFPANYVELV

[5] = target: T5, Yhr016c SH3 (YSC84_YEAST), P32793
T5 chain: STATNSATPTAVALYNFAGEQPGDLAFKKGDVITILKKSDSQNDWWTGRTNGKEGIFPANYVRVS

Binder: SNSPQIPKKKVKDQ [YBL004W 1825-1838]
- normalised SPOT signal, Boehringer light units (BLU); mean over the file's lines of this peptide [1]: 698
- normalised SPOT signal, Boehringer light units (BLU); mean over the file's lines of this peptide [2]: 64
- normalised SPOT signal, Boehringer light units (BLU); mean over the file's lines of this peptide [3]: 34.4
- normalised SPOT signal, Boehringer light units (BLU); mean over the file's lines of this peptide [4]: 1830
- normalised SPOT signal, Boehringer light units (BLU); mean over the file's lines of this peptide [5]: 151

Binder: SNSPSPPEKINNKR [YMR086W 654-667]
- normalised SPOT signal, Boehringer light units (BLU); mean over the file's lines of this peptide [1]: 61.1
- normalised SPOT signal, Boehringer light units (BLU); mean over the file's lines of this peptide [2]: 51.3
- normalised SPOT signal, Boehringer light units (BLU); mean over the file's lines of this peptide [3]: 47
- normalised SPOT signal, Boehringer light units (BLU); mean over the file's lines of this peptide [4]: 116
- normalised SPOT signal, Boehringer light units (BLU); mean over the file's lines of this peptide [5]: 136

Binder: SNVPTTPSRELNGT [YNL309W 346-359]
- normalised SPOT signal, Boehringer light units (BLU); mean over the file's lines of this peptide [1]: 33.2
- normalised SPOT signal, Boehringer light units (BLU); mean over the file's lines of this peptide [2]: 71.4
- normalised SPOT signal, Boehringer light units (BLU); mean over the file's lines of this peptide [3]: 37.4
- normalised SPOT signal, Boehringer light units (BLU); mean over the file's lines of this peptide [4]: 272
- normalised SPOT signal, Boehringer light units (BLU); mean over the file's lines of this peptide [5]: 210

Binder: SPFPSAPLRKLEIL [YIL034C 92-105]
- normalised SPOT signal, Boehringer light units (BLU); mean over the file's lines of this peptide [1]: 49.9
- normalised SPOT signal, Boehringer light units (BLU); mean over the file's lines of this peptide [2]: 39.5
- normalised SPOT signal, Boehringer light units (BLU); mean over the file's lines of this peptide [3]: 29.4
- normalised SPOT signal, Boehringer light units (BLU); mean over the file's lines of this peptide [4]: 86
- normalised SPOT signal, Boehringer light units (BLU); mean over the file's lines of this peptide [5]: 205

Binder: SPLPVLPRRISTHT [YMR068W 249-262]
- normalised SPOT signal, Boehringer light units (BLU); mean over the file's lines of this peptide [1]: 8950
- normalised SPOT signal, Boehringer light units (BLU); mean over the file's lines of this peptide [2]: 40.5
- normalised SPOT signal, Boehringer light units (BLU); mean over the file's lines of this peptide [3]: 19000
- normalised SPOT signal, Boehringer light units (BLU); mean over the file's lines of this peptide [4]: 35800
- normalised SPOT signal, Boehringer light units (BLU); mean over the file's lines of this peptide [5]: 29500

Binder: SPPPVSPSKMKTTK [YMR255W 106-119]
- normalised SPOT signal, Boehringer light units (BLU); mean over the file's lines of this peptide [1]: 105
- normalised SPOT signal, Boehringer light units (BLU); mean over the file's lines of this peptide [2]: 45.3
- normalised SPOT signal, Boehringer light units (BLU); mean over the file's lines of this peptide [3]: 25.3
- normalised SPOT signal, Boehringer light units (BLU); mean over the file's lines of this peptide [4]: 22.8
- normalised SPOT signal, Boehringer light units (BLU); mean over the file's lines of this peptide [5]: 243

Binder: SPSPLNPYRPHHNM [YNL298W 402-415]
- normalised SPOT signal, Boehringer light units (BLU); mean over the file's lines of this peptide [1]: 63.4
- normalised SPOT signal, Boehringer light units (BLU); mean over the file's lines of this peptide [2]: 53.9
- normalised SPOT signal, Boehringer light units (BLU); mean over the file's lines of this peptide [3]: 43.7
- normalised SPOT signal, Boehringer light units (BLU); mean over the file's lines of this peptide [4]: 343
- normalised SPOT signal, Boehringer light units (BLU); mean over the file's lines of this peptide [5]: 522

Binder: SPSPSTPTKSGKMR [YKL185W 424-437]
- normalised SPOT signal, Boehringer light units (BLU); mean over the file's lines of this peptide [1]: 278
- normalised SPOT signal, Boehringer light units (BLU); mean over the file's lines of this peptide [2]: 52.9
- normalised SPOT signal, Boehringer light units (BLU); mean over the file's lines of this peptide [3]: 35.3
- normalised SPOT signal, Boehringer light units (BLU); mean over the file's lines of this peptide [4]: 302
- normalised SPOT signal, Boehringer light units (BLU); mean over the file's lines of this peptide [5]: 150

Binder: SQFPSSPYRTVDPY [YLR183C 3-16]
- normalised SPOT signal, Boehringer light units (BLU); mean over the file's lines of this peptide [1]: 72
- normalised SPOT signal, Boehringer light units (BLU); mean over the file's lines of this peptide [2]: 9
- normalised SPOT signal, Boehringer light units (BLU); mean over the file's lines of this peptide [3]: 37.5
- normalised SPOT signal, Boehringer light units (BLU); mean over the file's lines of this peptide [4]: 114
- normalised SPOT signal, Boehringer light units (BLU); mean over the file's lines of this peptide [5]: 330

Binder: SQKPQKPKKSAITK [YJR033C 1337-1350]
- normalised SPOT signal, Boehringer light units (BLU); mean over the file's lines of this peptide [1]: 87.8
- normalised SPOT signal, Boehringer light units (BLU); mean over the file's lines of this peptide [2]: 74.5
- normalised SPOT signal, Boehringer light units (BLU); mean over the file's lines of this peptide [3]: 27
- normalised SPOT signal, Boehringer light units (BLU); mean over the file's lines of this peptide [4]: 647
- normalised SPOT signal, Boehringer light units (BLU); mean over the file's lines of this peptide [5]: 81.8

Binder: SQQPTAPMKKTLLK [YMR198W 453-466]
- normalised SPOT signal, Boehringer light units (BLU); mean over the file's lines of this peptide [1]: 343
- normalised SPOT signal, Boehringer light units (BLU); mean over the file's lines of this peptide [2]: 2.3
- normalised SPOT signal, Boehringer light units (BLU); mean over the file's lines of this peptide [3]: 53.5
- normalised SPOT signal, Boehringer light units (BLU); mean over the file's lines of this peptide [4]: 58.5
- normalised SPOT signal, Boehringer light units (BLU); mean over the file's lines of this peptide [5]: 0

Binder: SQSPKRPKKYPKKA [YNL080C 295-308]
- normalised SPOT signal, Boehringer light units (BLU); mean over the file's lines of this peptide [1]: 47
- normalised SPOT signal, Boehringer light units (BLU); mean over the file's lines of this peptide [2]: 36.6
- normalised SPOT signal, Boehringer light units (BLU); mean over the file's lines of this peptide [3]: 57.3
- normalised SPOT signal, Boehringer light units (BLU); mean over the file's lines of this peptide [4]: 624
- normalised SPOT signal, Boehringer light units (BLU); mean over the file's lines of this peptide [5]: 214

Binder: SRKPPIPAKQHVKK [YIL156W 547-560]
- normalised SPOT signal, Boehringer light units (BLU); mean over the file's lines of this peptide [1]: 51.7
- normalised SPOT signal, Boehringer light units (BLU); mean over the file's lines of this peptide [2]: -0
- normalised SPOT signal, Boehringer light units (BLU); mean over the file's lines of this peptide [3]: 14.9
- normalised SPOT signal, Boehringer light units (BLU); mean over the file's lines of this peptide [4]: 4850
- normalised SPOT signal, Boehringer light units (BLU); mean over the file's lines of this peptide [5]: 35.2

Binder: SRPPRPPPKPLHLR [YIL095W 747-760]
- normalised SPOT signal, Boehringer light units (BLU); mean over the file's lines of this peptide [1]: 100
- normalised SPOT signal, Boehringer light units (BLU); mean over the file's lines of this peptide [2]: 216
- normalised SPOT signal, Boehringer light units (BLU); mean over the file's lines of this peptide [3]: 565
- normalised SPOT signal, Boehringer light units (BLU); mean over the file's lines of this peptide [4]: 25900
- normalised SPOT signal, Boehringer light units (BLU); mean over the file's lines of this peptide [5]: 1020

Binder: SSFPTIPLRASSGA [YER006W 232-245]
- normalised SPOT signal, Boehringer light units (BLU); mean over the file's lines of this peptide [1]: 468
- normalised SPOT signal, Boehringer light units (BLU); mean over the file's lines of this peptide [2]: 9.1
- normalised SPOT signal, Boehringer light units (BLU); mean over the file's lines of this peptide [3]: 786
- normalised SPOT signal, Boehringer light units (BLU); mean over the file's lines of this peptide [4]: 3160
- normalised SPOT signal, Boehringer light units (BLU); mean over the file's lines of this peptide [5]: 777

Binder: SSIPPNPGKTAKPI [YBR198C 108-121]
- normalised SPOT signal, Boehringer light units (BLU); mean over the file's lines of this peptide [1]: 71.5
- normalised SPOT signal, Boehringer light units (BLU); mean over the file's lines of this peptide [2]: 42.9
- normalised SPOT signal, Boehringer light units (BLU); mean over the file's lines of this peptide [3]: 56.1
- normalised SPOT signal, Boehringer light units (BLU); mean over the file's lines of this peptide [4]: 135
- normalised SPOT signal, Boehringer light units (BLU); mean over the file's lines of this peptide [5]: 429

Binder: SSLPLGPIKERSKQ [YMR012W 146-159]
- normalised SPOT signal, Boehringer light units (BLU); mean over the file's lines of this peptide [1]: 120
- normalised SPOT signal, Boehringer light units (BLU); mean over the file's lines of this peptide [2]: 19.3
- normalised SPOT signal, Boehringer light units (BLU); mean over the file's lines of this peptide [3]: 15.4
- normalised SPOT signal, Boehringer light units (BLU); mean over the file's lines of this peptide [4]: 78
- normalised SPOT signal, Boehringer light units (BLU); mean over the file's lines of this peptide [5]: -0

Binder: SSLPSPPAKKSATS [YOL006C 72-85]
- normalised SPOT signal, Boehringer light units (BLU); mean over the file's lines of this peptide [1]: 66.2
- normalised SPOT signal, Boehringer light units (BLU); mean over the file's lines of this peptide [2]: 16.7
- normalised SPOT signal, Boehringer light units (BLU); mean over the file's lines of this peptide [3]: 40.7
- normalised SPOT signal, Boehringer light units (BLU); mean over the file's lines of this peptide [4]: 300
- normalised SPOT signal, Boehringer light units (BLU); mean over the file's lines of this peptide [5]: 61.3

Binder: SSMPNSPKKPVDSL [YDL117W 117-130]
- normalised SPOT signal, Boehringer light units (BLU); mean over the file's lines of this peptide [1]: 78.9
- normalised SPOT signal, Boehringer light units (BLU); mean over the file's lines of this peptide [2]: 90.7
- normalised SPOT signal, Boehringer light units (BLU); mean over the file's lines of this peptide [3]: 335
- normalised SPOT signal, Boehringer light units (BLU); mean over the file's lines of this peptide [4]: 902
- normalised SPOT signal, Boehringer light units (BLU); mean over the file's lines of this peptide [5]: 108

Binder: SSNPDDPIRVTTPM [YOL004W 293-306]
- normalised SPOT signal, Boehringer light units (BLU); mean over the file's lines of this peptide [1]: 25.6
- normalised SPOT signal, Boehringer light units (BLU); mean over the file's lines of this peptide [2]: 75.1
- normalised SPOT signal, Boehringer light units (BLU); mean over the file's lines of this peptide [3]: 20.9
- normalised SPOT signal, Boehringer light units (BLU); mean over the file's lines of this peptide [4]: 85
- normalised SPOT signal, Boehringer light units (BLU); mean over the file's lines of this peptide [5]: 282

Binder: SSPPPLPTRRDHIK [YPR171W 184-197]
- normalised SPOT signal, Boehringer light units (BLU); mean over the file's lines of this peptide [1]: 56800
- normalised SPOT signal, Boehringer light units (BLU); mean over the file's lines of this peptide [2]: 361
- normalised SPOT signal, Boehringer light units (BLU); mean over the file's lines of this peptide [3]: 33600
- normalised SPOT signal, Boehringer light units (BLU); mean over the file's lines of this peptide [4]: 35200
- normalised SPOT signal, Boehringer light units (BLU); mean over the file's lines of this peptide [5]: 117000

Binder: SSQPRPPPRPQQNP [YGR268C 71-84]
- normalised SPOT signal, Boehringer light units (BLU); mean over the file's lines of this peptide [1]: 69.2
- normalised SPOT signal, Boehringer light units (BLU); mean over the file's lines of this peptide [2]: 5.7
- normalised SPOT signal, Boehringer light units (BLU); mean over the file's lines of this peptide [3]: 956
- normalised SPOT signal, Boehringer light units (BLU); mean over the file's lines of this peptide [4]: 8620
- normalised SPOT signal, Boehringer light units (BLU); mean over the file's lines of this peptide [5]: 2040
